Measurements: the supplement of paper PMC9170038

What was measured:
[1] = tested on: MS2 coat protein; experiment: apparent KD of MS2 coat protein; designed switch direction (-1 OFF switch, 1 ON switch): 1; higher = weaker reporter binding
In short: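 The reported apparent KD is a per-design median over clusters, from curve fits of normalised cluster fluorescence. Protein titrations used SNAP-549-labelled MS2 coat protein, doubled from 0.7 or 1.5 nM to 3 µM, in Tris-HCl pH 7.5 buffer with KCl, MgCl2, BSA, DTT, tRNA and Tween-20, with no input, 200 uM small-molecule ligand, or an oligonucleotide input. The RNA switches were transcribed on Illumina chips by stalled E. coli RNA polymerase.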

[2] = tested on: MS2 coat protein; experiment: apparent KD of MS2 coat protein; higher = weaker reporter binding; details: Eterna round: R107
In short: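 Apparent KD was obtained for each design as the median of normalised binding-curve fits over its clusters. RNA switches transcribed on-chip from Illumina sequencing clusters were titrated with SNAP-549-labelled MS2 coat protein (twofold steps, 0.7 or 1.5 nM to 3 µM) in 100 mM Tris-HCl pH 7.5, 80 mM KCl, 4 mM MgCl2, without or with constant ligand.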

[3] = Eterna round: R95, input ligand: FMN 200 uM
[4] = Eterna round: R95, input ligand: microRNA oligo, concentration not stated
[5] = Eterna round: R95, input ligand: none
[6] = input ligand: microRNA oligo, concentration not stated
[7] = input ligand: theophylline 20 uM
[8] = input ligand: theophylline 2 mM
[9] = input ligand: tryptophan 2.4 mM

Sequence | apparent KD of MS2 coat protein ([1]; input ligand: FMN 200 uM) [nM] | apparent KD of MS2 coat protein [1, 6] [nM] | apparent KD of MS2 coat protein ([1]; input ligand: none) [nM] | apparent KD of MS2 coat protein ([2]; input ligand: arginine 13.2 mM) [nM] | apparent KD of MS2 coat protein [2, 7] [nM] | apparent KD of MS2 coat protein [2, 9] [nM] | also measured
AAAAAACAUGAGGAUCACCCAUGUCAAAAGACAUGAGGAUAUGUGCAAAUAAAAUAAGAAACAGAAGGCAUGAAAA [salish99_ss1_r3_102] (puzzle: Same State 1) |  |  |  |  |  |  | apparent KD of MS2 coat protein [1, 3]: 69.1 nM; apparent KD of MS2 coat protein [1, 4]: 210 nM; apparent KD of MS2 coat protein [1, 5]: 229 nM
AAAAAACAUGAGGAUCACCCAUGUCAAAAGACUCGAGGAUAUGGGCAAAUAAAAUAAGAACCAGAAGGCGAGAAAA [salish99_ss1_r3_101] (puzzle: Same State 1) |  |  |  |  |  |  | apparent KD of MS2 coat protein [1, 3]: 20 nM; apparent KD of MS2 coat protein [1, 4]: 36.3 nM; apparent KD of MS2 coat protein [1, 5]: 31.7 nM
AAAACAGGCUUCCUCUCGUCUCAAAAUGCACAUGAGGAUCACCCAUGUAAAACCCAGCGUAGUGUCGCACUACCUGA [Laresoar] (puzzle: Sensor for hsa-mir-208a) |  |  |  |  |  |  | apparent KD of MS2 coat protein [1, 3]: 161 nM; apparent KD of MS2 coat protein [1, 4]: 23.4 nM; apparent KD of MS2 coat protein [1, 5]: 126 nM
AAAAGAAACACAGGAUAUACCGCACUUAACGCGGUAGAAGGGUGGGACAUGAGGAUCACCCAUGUGGCCUGAGCACCAGGCCGC [Orgele] (Eterna round: R96, puzzle: Same State NG 1) | 47 | 5.38 | 21.8 |  |  |  | 
AAAAGAAACAUGUACCUGAGUACAUGAAAACAUGAGGAUCACCCAUGUAAUAAGCGGGUGGCUCGUCUUAUAAGAAA [JL pocket 27] (Eterna round: R96, puzzle: Sensor for hsa-mir-208a) | 890 | 70.4 | 715 |  |  |  | 
AAAAGACAGGCAGGAUAUGGGCCUGGCUCUGAUAUCAGAGCCUACACAUGAGGAUCACCCAUGUCCCAGAAGGGCCUGUAGAAG [Cetiriqu] (Eterna round: R96, puzzle: Same State NG 2) | 19.4 | 65.3 | 79.1 |  |  |  | 
AAAAUCGCGAUAGGAUAUGGGAAAGGAAGUGUACCAGAAGGAUCAGCGCCGACUGGACAUGAGGAUCACCCAUGUCGAGUCUUA [PowerStrip SSNG 1.2] (Eterna round: R96, puzzle: Same State NG 1) | 42.2 | 26.6 | 80.5 |  |  |  | 
AAAAUGGUAUGUUACAUGAGGAUCACCCAUGUACUCUAAUCUGAGGAUAUGGGAAUGAAGAAGAACCAGAAGGCAGACAUCCAA [AK SSNG3-V2-23] (Eterna round: R96, puzzle: Same State NG 3) | 258 | 91.8 | 104 |  |  |  | 
AAAAUGUGAUGUUACAUGAGGAUCACCCAUGUAGUGACAACUAAGGAUAUCCGAAAAAAAGGAGAGGAGAAGGUAGGAUCACAA [AK SSNG3-V2-16.2] (Eterna round: R96, puzzle: Same State NG 3) | 18.3 | 33.3 | 46.3 |  |  |  | 
AAACACGGCAUAACACCGUGACAUGAGGAUCACCCAUGUACACAGGAUAUCAUGGCAAAACGCCAUGAGAAGGGUGAUCAAGAC [Telate] (Eterna round: R96, puzzle: Same State NG 3) | 464 | 68.1 | 35.1 |  |  |  | 
AAACAGCCCAACGGAGGGCCACAUGAGGAUCACCCAUGUACAUAGGAUAUCACGCCAACGAGGCGUGAGAAGGGUGAUUAAAAC [Inesteen] (Eterna round: R96, puzzle: Same State NG 3) | 18 | 51.2 | 53.9 |  |  |  | 
AAACAGCCGAACGGAGGGCCACAUGAGGAUCACCCAUGUACAUAGGAUAUCAUGCCAACGAGGCAUGAGAAGGGUGAUUAAAAC [Usinvema] (Eterna round: R96, puzzle: Same State NG 3) | 11.7 | 350 | 359 |  |  |  | 
AAACAUGAGCGAGGAUAUGCGGACGAUUACGCUGUAGAAGGCGCAUGUAAAACAACAUGAGGAUCACCCAUGUCAUGUACAUGU (Eterna round: R96, puzzle: Same State NG 1) | 308 | 146 | 265 |  |  |  | 
AAACCACAUGAGGAUCACCCAUGUCAAGAGAGACUAGGAUAUCUGAAUUAAUUAAAUUAAGGAGAAGGAGUGAAAA [71%, Same state of confusion2, 3] (Eterna round: R96, puzzle: Same State 1) | 57.4 | 100 | 131 |  |  |  | 
AAACGGCCCAACGGAGGGCCACAUGAGGAUCACCCAUGUACAUAGGAUAUCACACCAACAAGGCGUGAGAAGGGUGAUUAAAAC [Xeatte] (Eterna round: R96, puzzle: Same State NG 3) | 58.1 | 1120 | 747 |  |  |  | 
UUGACAUGAGGAUCACCCAUGUUAGCGGAAGGAGCGCGGUAGUACGCAGGUAGGUCGCCGAGAACAGUGAUAGUUGUUCUCAUGU [X-ArgiA-ms2@4-1] |  |  |  | 27.6 | 85 | 46.9 | apparent KD of MS2 coat protein ([2]; input ligand: none): 76.6 nM; apparent KD of MS2 coat protein [2, 8]: 91.2 nM
UUGGGUUUGUGAAGGAGCGGGUAUGUUUUAUAGUGGAUCCUAACAUGAGGAUCACCCAUGUCCCAGGUAGGUCGCGCGGGUUUGG [12.T] |  |  |  | 54.4 | 203 | 117 | apparent KD of MS2 coat protein ([2]; input ligand: none): 78.3 nM; apparent KD of MS2 coat protein [2, 8]: 149 nM
UUUACAUGAGGAUCACCCAUGUGCCAUGAUACCAGACAUGAAAAUGUCCCUUGGCAGCAUGAAGGUACCUCAUCGGGAAACCGAA [Malomerice] |  |  |  | 28.5 | 95.7 | 53 | 
UUUCAAGUAUCGGCCGCCACUCUAGUUGGUUGUUCAAUCCGAUUACAUGAGGAUCACCCAUGUCUGAGGACCGGGAUAAAGUAAU [theeternabot_sameState_MS2_Trp_B_25] |  |  |  | 20.4 | 32.5 |  | apparent KD of MS2 coat protein [2, 8]: 31.2 nM
UUUGAGAUAACAGAUACCAGCGUGUUAUAAAACAUGAGGAUCACCCAUGUAGUGAUCAAGCGCCCUUGGCAGCUGGUAUUUUAGG [7.G] |  |  |  | 70.3 | 186 | 146 | 
UUUGAUAGGACAGAUACCAGCGUGUUGUUGAACAUGAGGAUCACCCAUGUAGUGAUCAGGCGCCCUUGGCAGCUGGUUUGUUAGG [7.N] |  |  |  | 265 | 363 | 366 | 
UUUUAAGGGAUCGGUGCUGGUAGCAGAGAUACCAGAGUAAUGAUACUCCCUUGGCAGCUCAGUACAUGAGGAUCACCCAUGUUUU [Exclusion Theophylline A GF25] |  |  |  | 16.7 | 23.2 | 18.1 | 
UUUUACGGCGAUCUGGGUUUACCAGAUCGGCGAGGACCGGUACGGCCGCCACUCGUGUUUCUUUAACAUGAGGAUCACCCAUGUA [SSTA #1] |  |  |  | 32.4 | 77.3 | 16 | apparent KD of MS2 coat protein ([2]; input ligand: none): 38.4 nM; apparent KD of MS2 coat protein [2, 8]: 50.9 nM
UUUUACGGCGAUCUGGGUUUACCAGAUCGGCGAGGACCGGUACGGCCGCCACUCGUGUUUCUUUGACAUGAGGAUCACCCAUGUA [whbob_SS_trypto A_f1] |  |  |  | 28.9 | 42.5 |  | apparent KD of MS2 coat protein [2, 8]: 39.2 nM
UUUUAGCAUCGAAGGAGCGCUGGUAGGUGACACAUGAGGAUCACCCAUGUGCUCCUUACCGAGCAGGUAGGUCGCGAUGCUAUUU [SSAB NP+V+V2 #9] |  |  |  | 20 | 35.4 | 25.1 | apparent KD of MS2 coat protein ([2]; input ligand: none): 23.7 nM; apparent KD of MS2 coat protein [2, 8]: 29.4 nM
UUUUUCGCGGGCGAUACCAGCUUGAUCGUACUGGCCUGGUACAUGAGGAUCACCCAUGUAAGCCCUUGGCAGCGCGCGCGAGAAG [#1 Exclusion - Theophylline B Attempt #2 (HarryS)] |  |  |  | 10.8 | 17.7 | 12 | apparent KD of MS2 coat protein ([2]; input ligand: none): 11.5 nM; apparent KD of MS2 coat protein [2, 8]: 30.4 nM
UUUUUCGCGGGUGAUACCAGCAAAGCUGUACUGGUCUGGUACAUGAGGAUCACCCAUGUUUGCCCUUGGCAGCGCUCGGGAGAAG [#21 Exclusion-TheophyllineB] |  |  |  | 27.7 | 47.9 | 28.6 | 
UUUUUUAUUAUGGCGUAUCGGAAAACCGAUACCAGUACAGAAAUGUACCCUUGGCAGCGGCGUUUUACAUGAGGAUCACCCAUGU [Ex Theophylline A 5] |  |  |  | 12.4 | 18.9 | 15.4 | 
